Assay results reported in article PMC9036094, “Antigen-derived peptides engage the ER stress sensor IRE1α to curb dendritic cell cross-presentation” (The Journal of Cell Biology, 2022).

Legend:
[1] = tested on: IRE1α in MyD88 KO Flt3L-derived BMDCs; test: IRE1α activation in MyD88 KO Flt3L-derived BMDCs (immunoblot); type: cell-based, mouse; conditions: ovalbumin 500 μg/ml or LPS 10 μg/ml, 4 h
Description: Figure S1. Antigen pulsing of BMDCs activates IRE1α. (A) BMDCs were treated with MG132 (5 μM) or ovalbumin (500 μg/ml) for indicated time points and analyzed by IB. (B) BMDCs were pulsed with ovalbumin (500 μg/ml) and G9668 (3 μM) for indicated time periods and analyzed by IB. (C) Molecular structure, potency, and kinase selectivity of G9668. (D) Schematic representation of G9668 interaction with 220 kinases at 1 μM. Size and color of circles represent interaction strength. Analysis was conducted by KinomeScan. (E) BMDCs were pulsed for 4 h with APC-tagged ovalbumin or soluble CD4-Fc protein (500 μg/ml) with amiloride (10 μM); uptake of protein was assayed by flow cytometry (n = 3). (F) WT or MyD88 KO Flt3L-derived BMDCs were pulsed with ovalbumin (500 μg/ml) or soluble CD4-Fc protein (500 μg/ml), or treated with LPS (10 μg/ml) for 4 h and analyzed by IB. (G) MEFs and BMDCs were pulsed with ovalbumin or treated with Tg (100 nM) for 4 h and analyzed by IB. Images in A, B, F, and G represent at least two similar experiments, and molecular weights represent kD; E bar graphs represent mean ± SD from three independent biological repeats. Analysis for E was performed using unpaired, two-tailed t test; *, P ≤ 0.05; **, P ≤ 0.01. Source data are available for this figure: SourceData FS1. […]

IRE1α LD-Fc = test: Co-immunoprecipitation of ovalbumin with IRE1α LD-Fc; type: binding, human; conditions: LD-Fc 10 μg/ml, 2 h; ovalbumin 1-300 μg/ml; in words
Description: For experiments testing ovalbumin binding, a human LD-Fc was used at indicated concentrations. LD-Fc is comprised of amino acids M1-D443 of IRE1α fused C-terminally to a linker ([…]) followed by the human IgG1 hinge and Fc portion. Ovalbumin (Sigma-Aldrich) was dissolved in sterile PBS and used in native state or denatured as indicated by incubation at 95°C buffer for 10 min.
For co-immunoprecipitation experiments, IRE1α LD-Fc (10 μg/ml) and ovalbumin (indicated concentrations) were co-incubated in binding buffer (as described above) for 2 h and then immunoprecipitated with anti-IRE1α LD antibody (made in-house at Genentech), conjugated to sepharose beads, overnight at 4°C. Beads were subsequently washed four times with lysis buffer and boiled in SDS sample buffer for 10 min. Samples were then analyzed by SDS-PAGE followed by immunoblot.

B1: ovalbumin: classical protein antigen ovalbumin (Sigma-Aldrich) (protein)
chain: MGSIGAASMEFCFDVFKELKVHHANENIFYCPIAIMSALAMVYLGAKDSTRTQINKVVRFDKLPGFGDSIEAQCGTSVNVHSSLRDILNQITKPNDVYSFSLASRLYAEERYPILPEYLQCVKELYRGGLEPINFQTAADQARELINSWVESQTNGIIRNVLQPSSVDSQTAMVLVNAIVFKGLWEKAFKDEDTQAMPFRVTEQESKPVQMMYQIGLFRVASMASEKMKILELPFASGTMSMLVLLPDEVSGLEQLESIINFEKLTEWTSSNVMEERKIKVYLPRMKMEEKYNLTSVLMAMGITDVFSSSANLSGISSAESLKISQAVHAAHAEINEAGREVVGSAEAGVDAASVSEEFRADHPFLFCIKHIATNAVLFFGRCVSP
IRE1α activation, MyD88 KO BMDCs [1]: unimpeded IRE1α stimulation
co-immunoprecipitation with IRE1α LD-Fc (IRE1α LD-Fc): did not show appreciable binding
